Measured values taken from the supplement of paper PMC5998384.

Tests used:
HeLa Kyoto [1] = test: melting temperature (median over replicates), in situ; higher = more thermally stable
HeLa Kyoto [2] = test: solubility in G1/S (NP-40 vs SDS abundance) (log2 ratio); higher = more soluble; details: cell cycle stage: G1/S
HeLa Kyoto [3] = test: solubility change mitosis vs G1/S (difference of NP-40 vs SDS log2 ratios) (log2 ratio difference); higher = more soluble in mitosis
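For melting temperature (median over replicates), in situ in this document: HeLa Kyoto cells synchronized by double thymidine or nocodazole block, proteins quantified by TMT10plex mass spectrometry, three independent biological replicates.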
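For solubility change mitosis vs G1/S (difference of NP-40 vs SDS log2 ratios) in this document: synchronized HeLa Kyoto cells (double thymidine block for G1/S, nocodazole release for mitosis), protein amounts in NP-40 versus SDS lysates quantified by mass spectrometry, three biological replicates.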
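For solubility in G1/S (NP-40 vs SDS abundance) in this document: HeLa Kyoto cells arrested at G1/S by double thymidine block, proteins quantified by TMT10plex mass spectrometry in mild NP-40 versus SDS extracts, three biological replicates.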

Sequence | melting temperature (HeLa Kyoto [1]; cell cycle stage: G1/S) [°C] | melting temperature (HeLa Kyoto [1]; cell cycle stage: mitosis) [°C] | solubility in G1/S (log2) (HeLa Kyoto [2]) | solubility change mitosis (log2) (HeLa Kyoto [3])
MAAAATMAAAARELVLRAGTSDMEEEEGPLAGGPGLQEPLQLGELDITSDEFILDEVDVHIQANLEDELVKEALKTGVDLRHYSKQVELELQQIEQKSIRDYIQESENIASLHNQITACDAVLERMEQMLGAFQSDLSSISSEIRTLQEQSGAMNIRLRNRQAVRGKLGELVDGLVVPSALVTAILEAPVTEPRFLEQLQELDAKAAAVREQEARGTAACADVRGVLDRLRVKAVTKIREFILQKIYSFRKPMTNYQIPQTALLKYRFFYQFLLGNERATAKEIRDEYVETLSKIYLSYYRSYLGRLMKVQYEEVAEKDDLMGVEDTAKKGFFSKPSLRSRNTIFTLGTRGSVISPTELEAPILVPHTAQRGEQRYPFEALFRSQHYALLDNSCREYLFICEFFVVSGPAAHDLFHAVMGRTLSMTLKHLDSYLADCYDAIAVFLCIHIVLRFRNIAAKRDVPALDRYWEQVLALLWPRFELILEMNVQSVRSTDPQRLGGLDTRPHYITRRYAEFSSALVSINQTIPNERTMQLLGQLQVEVENFVLRVAAEFSSRKEQLVFLINNYDMMLGVLMERAADDSKEVESFQQLLNARTQEFIEELLSPPFGGLVAFVKEAEALIERGQAERLRGEEARVTQLIRGFGSSWKSSVESLSQDVMRSFTNFRNGTSIIQGALTQLIQLYHRFHRVLSQPQLRALPARAELINIHHLMVELKKHKPNF [VPS52] | 51.5 | 50.4 | -0.194 | -0.138
MAAAEEGCSVGAEADRELEELLESALDDFDKAKPSPAPPSTTTAPDASGPQKRSPGDTAKDALFASQEKFFQELFDSELASQATAEFEKAMKELAEEEPHLVEQFQKLSEAAGRVGSDMTSQQEFTSCLKETLSGLAKNATDLQNSSMSEEELTKAMEGLGMDEGDGEGNILPIMQSIMQNLLSKDVLYPSLKEITEKYPEWLQSHRESLPPEQFEKYQEQHSVMCKICEQFEAETPTDSETTQKARFEMVLDLMQQLQDLGHPPKELAGEMPPGLNFDLDALNLSGPPGASGEQCLIM [G3V3G9] | 51.1 | 51.3 | -0.172 | -0.158
MAAEEKDPLSYFAAYGSSSSGSSDEEDNIEPEETSRRTPDPAKSAGGCRNKAEKRLPGPDELFRSVTRPAFLYNPLNKQIDWERHVVKAPEEPPKEFKIWKSNYVPPPETYTTEKKPPPPELDMAIKWSNIYEDNGDDAPQNAKKARLLPEGEETLESDDEKDEHTSKKRKVEPGEPAKKKK [C1ORF52] | 54.3 | 52.5 | 0.074 | 0.413
MAAGERSWCLCKLLRFFYSLFFPGLIVCGTLCVCLVIVLWGIRLLLQRKKKLVSTSKNGKNQMVIAFFHPYCNAGGGGERVLWCALRALQKKYPEAVYVVYTGDVNVNGQQILEGAFRRFNIRLIHPVQFVFLRKRYLVEDSLYPHFTLLGQSLGSIFLGWEALMQCVPDVYIDSMGYAFTLPLFKYIGGCQVGSYVHYPTISTDMLSVVKNQNIGFNNAAFITRNPFLSKVKLIYYYLFAFIYGLVGSCSDVVMVNSSWTLNHILSLWKVGNCTNIVYPPCDVQTFLDIPLHEKKMTPGHLLVSVGQFRPEKNHPLQIRAFAKLLNKKMVESPPSLKLVLIGGCRNKDDELRVNQLRRLSEDLGVQEYVEFKINIPFDELKNYLSEATIGLHTMWNEHFGIGVVECMAAGTIILAHNSGGPKLDIVVPHEGDITGFLAESEEDYAETIAHILSMSAEKRLQIRKSARASVSRFSDQEFEVTFLSSVEKLFK [ALG11] | – | 52.4 | 0.114 | -0.199
MAAPSEVAAIAPGEGDGGGGGFGSWLDGRLEALGVDRAVYGAYILGILQEEEEEEKLDALQGILSAFLEEDSLLNICKEIVERWSETQNVVTKVKKEDEVQAIATLIEKQAQIVVKPRMVSEEEKQRKAALLAQYADVTDEEDEADEKDDSGATTMNIGSDKLLFRNTNVEDVLNARKLERDSLRDESQRKKEQDKLQRERDKLAKQERKEKEKKRTQRGERKR [CCDC43] | 53.8 | 53.7 | 0.483 | 0.216
MAAPWASLRLVAPMWNGRIRGIHRLGAAVAPEGNQKKKRTILQFLTNYFYDVEALRDYLLQREMYKVHEKNRSYTWLEKQHGPYGAGAFFILKQGGAVKFRDKEWIRPDKYGHFSQEFWNFCEVPVEAVDAGDCDINYEGLDNLLRLKELQSLSLQRCCHVDDWCLSRLYPLADSLQELSLAGCPRISERGLACLHHLQNLRRLDISDLPAVSNPGLTQILVEEMLPNCEVVGVDWAEGLKSGPEEQPRDTASPVPA [ATP5SL] | 52.9 | 52 | 0.174 | -0.0178
MADDFGFFSSSESGAPEAAEEDPAAAFLAQQESEIAGIENDEGFGAPAGSHAAPAQPGPTSGAGSEDMGTTVNGDVFQEANGPADGYAAIAQADRLTQEPESIRKWREEQRKRLQELDAASKVTEQEWREKAKKDLEEWNQRQSEQVEKNKINNRIADKAFYQQPDADIIGYVASEEAFVKESKEETPGTEWEKVAQLCDFNPKSSKQCKDVSRLRSVLMSLKQTPLSR [CLTB] | 56.3 | 53.3 | 0.159 | 0.651
MADEATRRVVSEIPVLKTNAGPRDRELWVQRLKEEYQSLIRYVENNKNADNDWFRLESNKEGTRWFGKCWYIHDLLKYEFDIEFDIPITYPTTAPEIAVPELDGKTAKMYRGGKICLTDHFKPLWARNVPKFGLAHLMALGLGPWLAVEIPDLIQKGVIQHKEKCNQ [UFC1] | 53.3 | 52.9 | 0.134 | 0.23
MADQRQRSLSTSGESLYHVLGLDKNATSDDIKKSYRKLALKYHPDKNPDNPEAADKFKEINNAHAILTDATKRNIYDKYGSLGLYVAEQFGEENVNTYFVLSSWWAKALFVFCGLLTCCYCCCCLCCCFNCCCGKCKPKAPEGEETEFYVSPEDLEAQLQSDEREATDTPIVIQPASATETTQLTADSHPSYHTDGFN [DNAJC5] | 56 | 53.5 | 0.0289 | -0.273
MAEPSVESSSPGGSATSDDHEFDPSADMLVHDFDDERTLEEEEMMEGETNFSSEIEDLAREGDMPIHELLSLYGYGSTVRLPEEDEEEEEEEEEGEDDEDADNDDNSGCSGENKEENIKDSSGQEDETQSSNDDPSQSVASQDAQEIIRPRRCKYFDTNSEVEEESEEDEDYIPSEDWKKEIMVGSMFQAEIPVGICRYKENEKVYENDDQLLWDPEYLPEDKVIIFLKDASRRTGDEKGVEAIPEGSHIKDNEQALYELVKCNFDTEEALRRLRFNVKAAREELSVWTEEECRNFEQGLKAYGKDFHLIQANKVRTRSVGECVAFYYMWKKSERYDFFAQQTRFGKKKYNLHPGVTDYMDRLLDESESAASSRAPSPPPTASNSSNSQSEKEDGTVSTANQNGVSSNGPGEILNKEEVKVEGLHINGPTGGNKKPLHADMDTNGYETDNLTTDPKLAHMTARNENDFDEKSERPAKRRRVNSNGKESPGSSEFFQEAVSHGKFEELENTDD [MIER1] | 53.4 | 52.2 | 0.00102 | -0.0394
MAERPEDLNLPNAVITRIIKEALPDGVNISKEARSAISRAASVFVLYATSCANNFAMKGKRKTLNASDVLSAMEEMEFQRFVTPLKEALEAYRREQKGKKEASEQKKKDKDKKTDSEEQDKSRDEDNDEDEERLEEEEQNEEEEVDN [POLE3] | 49.2 | – | 0.357 | 0.5
MAGVSYAAPWWVSLLHRLPHFDLSWEATSSQFRPEDTDYQQALLLLGAAALACLALDLLFLLFYSFWLCCRRRKSEEHLDADCCCTAWCVIIATLVCSAGIAVGFYGNGETSDGIHRATYSLRHANRTVAGVQDRVWDTAVGLNHTAEPSLQTLERQLAGRPEPLRAVQRLQGLLETLLGYTAAIPFWRNTAVSLEVLAEQVDLYDWYRWLGYLGLLLLDVIICLLVLVGLIRSSKGILVGVCLLGVLALVISWGALGLELAVSVGSSDFCVDPDAYVTKMVEEYSVLSGDILQYYLACSPRAANPFQQKLSGSHKALVEMQDVVAELLRTVPWEQPATKDPLLRVQEVLNGTEVNLQHLTALVDCRSLHLDYVQALTGFCYDGVEGLIYLALFSFVTALMFSSIVCSVPHTWQQKRGPDEDGEEEAAPGPRQAHDSLYRVHMPSLYSCGSSYGSETSIPAAAHTVSNAPVTEYMSQNANFQNPRCENTPLIGRESPPPSYTSSMRAKYLATSQPRPDSSGSH [TTYH3] | 55.3 | 56.1 | 0.256 | -0.146
MAHAGGGSGGSGAGGPAGRGLSGARWGRSGSAGHEKLPVHVEDALTYLDQVKIRFGSDPATYNGFLEIMKEFKSQSIDTPGVIRRVSQLFHEHPDLIVGFNAFLPLGYRIDIPKNGKLNIQSPLTSQENSHNHGDGAEDFKQQVPYKEDKPQVPLESDSVEFNNAISYVNKIKTRFLDHPEIYRSFLEILHTYQKEQLNTRGRPFRGMSEEEVFTEVANLFRGQEDLLSEFGQFLPEAKRSLFTGNGPCEMHSVQKNEHDKTPEHSRKRSRPSLLRPVSAPAKKKMKLRGTKDLSIAAVGKYGTLQEFSFFDKVRRVLKSQEVYENFLRCIALFNQELVSGSELLQLVSPFLGKFPELFAQFKSFLGVKELSFAPPMSDRSGDGISREIDYASCKRIGSSYRALPKTYQQPKCSGRTAICKELDHWTLLQGSWTDDYCMSKFKNTCWIPGYSAGVLNDTWVSFPSWSEDSTFVSSKKTPYEEQLHRCEDERFELDVVLETNLATIRVLESVQKKLSRMAPEDQEKFRLDDSLGGTSEVIQRRAIYRIYGDKAPEIIESLKKNPVTAVPVVLKRLKAKEEEWREAQQGFNKIWREQYEKAYLKSLDHQAVNFKQNDTKALRSKSLLNEIESVYDEHQEQHSEGRSAPSSEPHLIFVYEDRQILEDAAALISYYVKRQPAIQKEDQGTIHQLLHQFVPSLFFSQQLDLGASEESADEDRDSPQGQTTDPSERKKPAPGPHSSPPEEKGAFGDAPATEQPPLPPPAPHKPLDDVYSLFFANNNWYFFLRLHQTLCSRLLKIYRQAQKQLLEYRTEKEREKLLCEGRREKGSDPAMELRLKQPSEVELEEYYPAFLDMVRSLLEGSIDPTQYEDTLREMFTIHAYVGFTMDKLVQNIARQLHHLVSDDVCLKVVELYLNEKKRGAAGGNLSSRCVRAARETSYQWKAERCMADENCFKVMFLQRKGQVIMTIELLDTEEAQTEDPVEVQHLARYVEQYVGTEGASSSPTEGFLLKPVFLQRNLKKFRRRWQSEQARALRGEARSSWKRLVGVESACDVDCRFKLSTHKMVFIVNSEDYMYRRGTLCRAKQVQPLVLLRHHQHFEEWHSRWLEDNVTVEAASLVQDWLMGEEDEDMVPCKTLCETVHVHGLPVTRYRVQYSRRPASP [SIN3B] | 47.9 | 49.3 | -0.231 | 0.0177
MALLFLLPLVMQGVSRAEMGTADLGPSSVPTPTNVTIESYNMNPIVYWEYQIMPQVPVFTVEVKNYGVKNSEWIDACINISHHYCNISDHVGDPSNSLWVRVKARVGQKESAYAKSEEFAVCRDGKIGPPKLDIRKEEKQIMIDIFHPSVFVNGDEQEVDYDPETTCYIRVYNVYVRMNGSEIQYKILTQKEDDCDEIQCQLAIPVSSLNSQYCVSAEGVLHVWGVTTEKSKEVCITIFNSSIKGSLWIPVVAALLLFLVLSLVFICFYIKKINPLKEKSIILPKSLISVVRSATLETKPESKYVSLITSYQPFSLEKEVVCEEPLSPATVPGMHTEDNPGKVEHTEELSSITEVVTTEENIPDVVPGSHLTPIERESSSPLSSNQSEPGSIALNSYHSRNCSESDHSRNGFDTDSSCLESHSSLSDSEFPPNNKGEIKTEGQELITVIKAPTSFGYDKPHVLVDLLVDDSGKESLIGYRPTEDSKEFS [IFNGR1] | – | 55.3 | 0.103 | -0.126
